One assay has as its system LRP6. As to the kind of experiment: Competition binding between Dkk1 and other Wnt pathway inhibitors (preloaded Dkk1). On the set-up: species or system human. The note with it: Dkk1 100 nM preloaded, test ligand 100 nM. As to the method: FIG. 8. Competition binding between Dkk1 and other Wnt pathway inhibitors. The indicated LRP6 construct was preloaded onto biosensor tips. Dkk1 (100 nM) (or buffer control) and the test ligand (100 nM) were loaded sequentially onto the LRP6 tips. (A) Dkk2 competition with Dkk1. (B) Sclerostin competition with Dkk1. Percent binding in the presence of Dkk1 is shown relative to buffer control.
(§1) Binding kinetics were measured by biolayer interferometry using an Octet Red instrument (ForteBio) as previously described (11). Streptavidin (SA) biosensors were loaded with biotinylated hLRP6 in 50 mMTris, pH 8, 300 mM NaCl, 5% (v/v) glycerol, and 0.05% (w/v) Triton X-100. The loaded biosensors were washed in the same buffer before carrying out association and dissociation measurements for the indicated times. The Kd of each interaction was determined using steady state-analysis through the Octet Red software v6.3. Each reported value represents an average of three or more experiments at different concentrations, with a fitted experimental curve for which the square of the correlation coefficient (R^2) is above 0.96.
To assess whether Dkk1, Dkk2, and sclerostin might bind to the same site on LRP6 E1, Dkk2 or sclerostin binding was measured in the presence of preloaded Dkk1 (100 nM). […]

The target in assay [1] is T1, human LRP6 construct E1E2 (amino acids A20-E631) (human, UniProt O75581 20-631, biotinylated for biolayer interferometry).
T1 construct: range 20-631; also called LRP6 E1E2
T1 sequence (looked up): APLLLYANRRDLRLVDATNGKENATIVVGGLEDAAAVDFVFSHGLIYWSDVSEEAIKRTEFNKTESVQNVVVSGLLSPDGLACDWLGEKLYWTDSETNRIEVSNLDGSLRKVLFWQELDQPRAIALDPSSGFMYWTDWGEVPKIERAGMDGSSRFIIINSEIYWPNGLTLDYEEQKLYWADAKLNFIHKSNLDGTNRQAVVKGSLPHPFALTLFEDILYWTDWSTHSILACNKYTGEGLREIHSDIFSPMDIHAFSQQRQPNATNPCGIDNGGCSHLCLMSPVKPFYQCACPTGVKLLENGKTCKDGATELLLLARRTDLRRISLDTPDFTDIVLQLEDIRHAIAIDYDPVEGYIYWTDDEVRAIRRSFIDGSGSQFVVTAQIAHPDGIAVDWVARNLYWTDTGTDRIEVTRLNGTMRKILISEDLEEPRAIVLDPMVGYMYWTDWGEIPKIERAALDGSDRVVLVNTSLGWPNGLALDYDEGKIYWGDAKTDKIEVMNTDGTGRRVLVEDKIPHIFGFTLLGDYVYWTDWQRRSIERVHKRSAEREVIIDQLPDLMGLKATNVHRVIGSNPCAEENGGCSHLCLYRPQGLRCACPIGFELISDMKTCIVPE
As to the kind of experiment: BLI affinity. As to the method:
as §1, with “(R²)” for “(R^2)”

The target of assay [2] is T1, human LRP6 construct E1E2 (amino acids …). As to the kind of experiment: BLI (FIG. 9B). As to the method: as §1, with “(R²)” for “(R^2)”
Assay [3] addresses T2, human LRP6 construct E1E4 (amino acids A20-Q1253) (human, UniProt O75581 20-1253, biotinylated for biolayer interferometry).
T2 construct: range 20-1253; Expressed in Tni insect cells; tags not specified for this construct; also called LRP6 E1E4
T2 sequence (looked up): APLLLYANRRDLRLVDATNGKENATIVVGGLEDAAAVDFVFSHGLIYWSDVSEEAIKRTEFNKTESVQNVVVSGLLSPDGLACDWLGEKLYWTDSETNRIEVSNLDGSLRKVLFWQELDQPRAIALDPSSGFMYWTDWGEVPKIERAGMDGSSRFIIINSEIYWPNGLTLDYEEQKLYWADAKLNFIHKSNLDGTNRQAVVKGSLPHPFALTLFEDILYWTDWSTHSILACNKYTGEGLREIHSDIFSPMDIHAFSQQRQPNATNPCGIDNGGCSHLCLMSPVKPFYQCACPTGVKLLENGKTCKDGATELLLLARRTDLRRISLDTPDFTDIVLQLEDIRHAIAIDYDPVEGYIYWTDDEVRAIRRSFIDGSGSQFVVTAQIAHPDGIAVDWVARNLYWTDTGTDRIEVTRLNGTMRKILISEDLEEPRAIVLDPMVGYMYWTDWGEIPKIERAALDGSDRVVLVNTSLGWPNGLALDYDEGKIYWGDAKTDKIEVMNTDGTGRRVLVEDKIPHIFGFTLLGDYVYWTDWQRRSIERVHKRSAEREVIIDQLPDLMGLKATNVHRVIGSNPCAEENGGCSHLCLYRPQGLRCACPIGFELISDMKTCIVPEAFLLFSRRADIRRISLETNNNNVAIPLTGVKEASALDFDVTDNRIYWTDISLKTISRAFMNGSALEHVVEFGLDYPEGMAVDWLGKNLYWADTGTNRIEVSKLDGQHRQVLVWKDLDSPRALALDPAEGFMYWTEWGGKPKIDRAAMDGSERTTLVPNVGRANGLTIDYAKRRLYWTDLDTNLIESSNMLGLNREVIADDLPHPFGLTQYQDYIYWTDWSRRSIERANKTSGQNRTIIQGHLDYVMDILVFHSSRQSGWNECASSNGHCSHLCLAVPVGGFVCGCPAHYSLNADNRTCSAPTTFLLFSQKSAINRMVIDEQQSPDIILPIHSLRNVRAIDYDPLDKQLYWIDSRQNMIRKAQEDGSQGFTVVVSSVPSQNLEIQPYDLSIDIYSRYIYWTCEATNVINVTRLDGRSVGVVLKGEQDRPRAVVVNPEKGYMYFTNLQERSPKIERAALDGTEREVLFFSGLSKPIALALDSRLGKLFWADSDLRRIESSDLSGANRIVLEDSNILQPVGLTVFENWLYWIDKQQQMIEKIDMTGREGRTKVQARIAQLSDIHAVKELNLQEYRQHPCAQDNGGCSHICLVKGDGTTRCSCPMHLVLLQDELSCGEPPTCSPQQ
Kind of assay: BLI (FIG. 9B). As to the method: as §1, with “(R²)” for “(R^2)”

Changes are numbered by the printed parent chain. Names and notes keep the numbering of the source. Bounds are passed on as bounds.

With “sclerostin: Sclerostin protein, Wnt pathway inhibitor, expressed in insect cells (LPNAIGR)”, the “binding to LRP6 in the presence of preloaded Dkk1” value in the assay with LRP6 was “very strongly inhibited”.

B1: Dkk1 Ile42Glu (ligand, human, UniProt O94907 32-266, looked up)
chain: TLNSVLNSNAEKNLPPPLGGAAGHPGSAVSAAPGILYPGGNKYQTIDNYQPYPCAEDEECGTDEYCASPTRGGDAGVQICLACRKRRKRCMRHAMCCPGNYCKNGICVSSDQNHFRGEIEETITESFGNDHSTLDGYSRRTTLSSKMYHTKGQEGSVCLRSSDCASGLCCARHFWSKICKPVLKEGQVCTKHRRKGSHGLEIFQRCYCGEGLSCRIQKDHHQASNSSRLHTCQRH
notes: also called Dkk1 I42E
On to B1, for which, in assay [1], the “fold loss in affinity against wild-type Dkk1” value was over 364 fold.

B2: Dkk1 K211E (ligand, human, UniProt O94907 32-266, looked up)
chain: B1 chain with E11I, K180E
notes: also called Dkk1 Lys211Glu
Consider B2, for which the binding result in assay [2] and in assay [3] was “binds” throughout.

For the origin of these results see patent publication US20140235820A1, “METHODS AND COMPOSITIONS FOR MODULATING THE Wnt PATHWAY” (Genentech, Inc., priority 2010, published 2014).
